Measurements as given in publication PMC11574045, “A cofactor-induced repressive type of transcription factor condensation can be induced by synthetic peptides to suppress tumorigenesis” (The EMBO Journal, 2024).

B1: MAD (protein, UniProt Q05195 1-221, looked up)
Max dimerization protein 1: MAAAVRMNIQMLLEAADYLERREREAEHGYASMLPYNNKDRDALKRRNKSKKNNSSSRSTHNEMEKNRRAHLRLCLEKLKGLVPLGPESSRHTTLSLLTKAKLHIKKLEDCDRKAVHQIDQLQREQRHLKRQLEKLGIERIRMDSIGSTVSSERSDSDREEIDVDVESTDYLTGDLDWSSSSVSDSDERGSMQSLGSDEGYSSTSIKRIKLQDSHKACLGL
B2: LMCD1 (protein, UniProt Q9NZU5 1-365, looked up)
LIM and cysteine-rich domains …: MAKVAKDLNPGVKKMSLGQLQSARGVACLGCKGTCSGFEPHSWRKICKSCKCSQEDHCLTSDLEDDRKIGRLLMDSKYSTLTARVKGGDGIRIYKRNRMIMTNPIATGKDPTFDTITYEWAPPGVTQKLGLQYMELIPKEKQPVTGTEGAFYRRRQLMHQLPIYDQDPSRCRGLLENELKLMEEFVKQYKSEALGVGEVALPGQGGLPKEEGKQQEKPEGAETTAATTNGSLSDPSKEVEYVCELCKGAAPPDSPVVYSDRAGYNKQWHPTCFVCAKCSEPLVDLIYFWKDGAPWCGRHYCESLRPRCSGCDEIIFAEDYQRVEDLAWHRKHFVCEGCEQLLSGRAYIVTKGQLLCPTCSKSKRS
B3: LMO1 (protein, UniProt P25800 1-156, looked up)
Rhombotin-1: MMVLDKEDGVPMLSVQPKGKQKGCAGCNRKIKDRYLLKALDKYWHEDCLKCACCDCRLGEVGSTLYTKANLILCRRDYLRLFGTTGNCAACSKLIPAFEMVMRARDNVYHLDCFACQLCNQRFCVGDKFFLKNNMILCQMDYEEGQLNGTFESQVQ
B4: MDM4 (protein, UniProt O15151 1-490, looked up)
Protein Mdm4: MTSFSTSAQCSTSDSACRISPGQINQVRPKLPLLKILHAAGAQGEMFTVKEVMHYLGQYIMVKQLYDQQEQHMVYCGGDLLGELLGRQSFSVKDPSPLYDMLRKNLVTLATATTDAAQTLALAQDHSMDIPSQDQLKQSAEESSTSRKRTTEDDIPTLPTSEHKCIHSREDEDLIENLAQDETSRLDLGFEEWDVAGLPWWFLGNLRSNYTPRSNGSTDLQTNQDVGTAIVSDTTDDLWFLNESVSEQLGVGIKVEAADTEQTSEEVGKVSDKKVIEVGKNDDLEDSKSLSDDTDVEVTSEDEWQCTECKKFNSPSKRYCFRCWALRKDWYSDCSKLTHSLSTSDITAIPEKENEGNDVPDCRRTISAPVVRPKDAYIKKENSKLFDPCNSVEFLDLAHSSESQETISSMGEQLDNLSEQRTDTENMEDCQNLLKPCSLCEKRPRDGNIIHGRTGHLVTCFHCARRLKKAGASCPICKKEIQLVIKVFIA
B5: MADH1 (protein, UniProt Q15797 1-465, looked up)
Mothers against …: MNVTSLFSFTSPAVKRLLGWKQGDEEEKWAEKAVDALVKKLKKKKGAMEELEKALSCPGQPSNCVTIPRSLDGRLQVSHRKGLPHVIYCRVWRWPDLQSHHELKPLECCEFPFGSKQKEVCINPYHYKRVESPVLPPVLVPRHSEYNPQHSLLAQFRNLGQNEPHMPLNATFPDSFQQPNSHPFPHSPNSSYPNSPGSSSSTYPHSPTSSDPGSPFQMPADTPPPAYLPPEDPMTQDGSQPMDTNMMAPPLPSEINRGDVQAVAYEEPKHWCSIVYYELNNRVGEAFHASSTSVLVDGFTDPSNNKNRFCLGLLSNVNRNSTIENTRRHIGKGVHLYYVGGEVYAECLSDSSIFVQSRNCNYHHGFHPTTVCKIPSGCSLKIFNNQEFAQLLAQSVNHGFETVYELTKMCTIRMSFVKGWGAEYHRQDVTSTPCWIEIHLHGPLQWLDKVLTQMGSPHNPISSVS
B6: MDFI (protein, UniProt Q99750 1-246, looked up)
MyoD family inhibitor: MYQVSGQRPSGCDAPYGAPSAAPGPAQTLSLLPGLEVVTGSTHPAEAAPEEGSLEEAATPMPQGNGPGIPQGLDSTDLDVPTEAVTCQPQGNPLGCTPLLPNDSGHPSELGGTRRAGNGALGGPKAHRKLQTHPSLASQGSKKSKSSSKSTTSQIPLQAQEDCCVHCILSCLFCEFLTLCNIVLDCATCGSCSSEDSCLCCCCCGSGECADCDLPCDLDCGILDACCESADCLEICMECCGLCFSS
B7: ASCL3 (protein, UniProt Q9NQ33 1-181, looked up)
Achaete-scute homolog 3: MMDNRGNSSLPDKLPIFPDSARLPLTRSFYLEPMVTFHVHPEAPVSSPYSEELPRLPFPSDSLILGNYSEPCPFSFPMPYPNYRGCEYSYGPAFTRKRNERERQRVKCVNEGYAQLRHHLPEEYLEKRLSKVETLRAAIKYINYLQSLLYPDKAETKNNPGKVSSMIATTSHHADPMFRIV
B8: MAGED1 (protein, UniProt Q9Y5V3 1-778, looked up)
Melanoma-associated antigen D1: MAQKMDCGAGLLGFQAEASVEDSALLMQTLMEAIQISEAPPTNQATAAASPQSSQPPTANEMADIQVSAAAARPKSAFKVQNATTKGPNGVYDFSQAHNAKDVPNTQPKAAFKSQNATPKGPNAAYDFSQAATTGELAANKSEMAFKAQNATTKVGPNATYNFSQSLNANDLANSRPKTPFKAWNDTTKAPTADTQTQNVNQAKMATSQADIETDPGISEPDGATAQTSADGSQAQNLESRTIIRGKRTRKINNLNVEENSSGDQRRAPLAAGTWRSAPVPVTTQNPPGAPPNVLWQTPLAWQNPSGWQNQTARQTPPARQSPPARQTPPAWQNPVAWQNPVIWPNPVIWQNPVIWPNPIVWPGPVVWPNPLAWQNPPGWQTPPGWQTPPGWQGPPDWQGPPDWPLPPDWPLPPDWPLPTDWPLPPDWIPADWPIPPDWQNLRPSPNLRPSPNSRASQNPGAAQPRDVALLQERANKLVKYLMLKDYTKVPIKRSEMLRDIIREYTDVYPEIIERACFVLEKKFGIQLKEIDKEEHLYILISTPESLAGILGTTKDTPKLGLLLVILGVIFMNGNRASEAVLWEALRKMGLRPGVRHPLLGDLRKLLTYEFVKQKYLDYRRVPNSNPPEYEFLWGLRSYHETSKMKVLRFIAEVQKRDPRDWTAQFMEAADEALDALDAAAAEAEARAEARTRMGIGDEAVSGPWSWDDIEFELLTWDEEGDFGDPWSRIPFTFWARYHQNARSRFPQTFAGPIIGPGGTASANFAANFGAIGFFWVE
B9: ASCL2 (protein, UniProt Q99929 1-193, looked up)
Achaete-scute homolog 2: MDGGTLPRSAPPAPPVPVGCAARRRPASPELLRCSRRRRPATAETGGGAAAVARRNERERNRVKLVNLGFQALRQHVPHGGASKKLSKVETLRSAVEYIRALQRLLAEHDAVRNALAGGLRPQAVRPSAPRGPPGTTPVAASPSRASSSPGRGGSSEPGSPRSAYSSDDSGCEGALSPAERELLDFSSWLGGY
B10: MAEL (protein, UniProt Q96JY0 1-434, looked up)
Protein maelstrom homolog: MPNRKASRNAYYFFVQEKIPELRRRGLPVARVADAIPYCSSDWALLREEEKEKYAEMAREWRAAQGKDPGPSEKQKPVFTPLRRPGMLVPKQNVSPPDMSALSLKGDQALLGGIFYFLNIFSHGELPPHCEQRFLPCEIGCVKYSLQEGIMADFHSFINPGEIPRGFRFHCQAASDSSHKIPISNFERGHNQATVLQNLYRFIHPNPGNWPPIYCKSDDRTRVNWCLKHMAKASEIRQDLQLLTVEDLVVGIYQQKFLKEPSKTWIRSLLDVAMWDYSSNTRCKWHEENDILFCALAVCKKIAYCISNSLATLFGIQLTEAHVPLQDYEASNSVTPKMVVLDAGRYQKLRVGSSGFSHFNSSNEEQRSNTPIGDYPSRAKISGQNSSVRGRGITRLLESISNSSSNIHKFSNCDTSLSPYMSQKDGYKSFSSLS
B11: MADH4 (protein, UniProt Q13485 1-552, looked up)
Mothers against …: MDNMSITNTPTSNDACLSIVHSLMCHRQGGESETFAKRAIESLVKKLKEKKDELDSLITAITTNGAHPSKCVTIQRTLDGRLQVAGRKGFPHVIYARLWRWPDLHKNELKHVKYCQYAFDLKCDSVCVNPYHYERVVSPGIDLSGLTLQSNAPSSMMVKDEYVHDFEGQPSLSTEGHSIQTIQHPPSNRASTETYSTPALLAPSESNATSTANFPNIPVASTSQPASILGGSHSEGLLQIASGPQPGQQQNGFTGQPATYHHNSTTTWTGSRTAPYTPNLPHHQNGHLQHHPPMPPHPGHYWPVHNELAFQPPISNHPAPEYWCSIAYFEMDVQVGETFKVPSSCPIVTVDGYVDPSGGDRFCLGQLSNVHRTEAIERARLHIGKGVQLECKGEGDVWVRCLSDHAVFVQSYYLDREAGRAPGDAVHKIYPSAYIKVFDLRQCHRQMQQQAATAQAAAAAQAAAVAGNIPGPGSVGGIAPAISLSAAAGIGVDDLRRLCILRMSFVKGWGPDYPRQSIKETPCWIEIHLHRALQLLDEVLHTMPIADPQPLD
B12: MAD3 (protein, UniProt Q9BW11 1-206, looked up)
Max dimerization protein 3: MEPLASNIQVLLQAAEFLERREREAEHGYASLCPHRSPGPIHRRKKRPPQAPGAQDSGRSVHNELEKRRRAQLKRCLERLKQQMPLGADCARYTTLSLLRRARMHIQKLEDQEQRARQLKERLRSKQQSLQRQLEQLRGLAGAAERERLRADSLDSSGLSSERSDSDQEELEVDVESLVFGGEAELLRGFVAGQEHSYSHGGGAWL
B13: MBLR (protein, UniProt Q9BYE7 1-350, looked up)
Polycomb group RING finger …: MEGVAVVTAGSVGAAKTEGAAALPPPPPVSPPALTPAPAAGEEGPAPLSETGAPGCSGSRPPELEPERSLGRFRGRFEDEDEELEEEEELEEEEEEEEEDMSHFSLRLEGGRQDSEDEEERLINLSELTPYILCSICKGYLIDATTITECLHTFCKSCIVRHFYYSNRCPKCNIVVHQTQPLYNIRLDRQLQDIVYKLVINLEEREKKQMHDFYKERGLEVPKPAVPQPVPSSKGRSKKVLESVFRIPPELDMSLLLEFIGANEGTGHFKPLEKKFVRVSGEATIGHVEKFLRRKMGLDPACQVDIICGDHLLEQYQTLREIRRAIGDAAMQDGLLVLHYGLVVSPLKIT
B14: LMX1B (protein, UniProt O60663 1-402, looked up)
LIM homeobox transcription …: MDIATGPESLERCFPRGQTDCAKMLDGIKMEEHALRPGPATLGVLLGSDCPHPAVCEGCQRPISDRFLMRVNESSWHEECLQCAACQQALTTSCYFRDRKLYCKQDYQQLFAAKCSGCMEKIAPTEFVMRALECVYHLGCFCCCVCERQLRKGDEFVLKEGQLLCKGDYEKEKDLLSSVSPDESDSVKSEDEDGDMKPAKGQGSQSKGSGDDGKDPRRPKRPRTILTTQQRRAFKASFEVSSKPCRKVRETLAAETGLSVRVVQVWFQNQRAKMKKLARRHQQQQEQQNSQRLGQEVLSSRMEGMMASYTPLAPPQQQIVAMEQSPYGSSDPFQQGLTPPQMPGDHMNPYGNDSIFHDIDSDTSLTSLSDCFLGSSDVGSLQARVGNPIDRLYSMQSSYFAS

tested on: HEK293FT cells transfected with TF library; experiment: Screening of TF condensates based on fluorescent puncta; assay type: cell-based; settings: Figure 1B numerical data; TF library screen, one value per transcriptional factor
Summary of the method: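 HEK293FT cells were reverse-transfected with Flag- or GAL4-tagged TF plasmids (1.6 μg/ml, PEI). After 60 h, cells were cultured 12 h with or without glucose, then fixed and immunostained with anti-Flag or anti-GAL4 and Alexa 488 secondaries. Fluorescent puncta were imaged over fifty random fields per well by high-content imaging.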

| Molecule | Z score of condensed fraction |
| --- | --- |
| B1 | 0.4682 |
| B2 | 2.397 |
| B3 | 0.976 |
| B4 | 2.3 |
| B5 | -0.2284 |
| B6 | 0.558 |
| B7 | 0.02457 |
| B8 | -0.7984 |
| B9 | 0.864 |
| B10 | -0.816 |
| B11 | -0.6861 |
| B12 | -1.116 |
| B13 | 0.4702 |
| B14 | 0.1118 |
